The labels stand for the following.
T1: CT-Ler R90Q (Escherichia coli EHEC O157:H7, UniProt Q7DB51 70-116, R90Q)
T1 chain: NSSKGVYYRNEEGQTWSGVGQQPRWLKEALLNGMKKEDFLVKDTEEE

T2: CT-Ler R90G (Escherichia coli EHEC O157:H7, UniProt Q7DB51 70-116, R90G)
T2 chain: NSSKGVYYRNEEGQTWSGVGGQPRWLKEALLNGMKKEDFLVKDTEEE

T3: CT-Ler (Escherichia coli EHEC O157:H7, UniProt Q7DB51 70-116)
T3 chain: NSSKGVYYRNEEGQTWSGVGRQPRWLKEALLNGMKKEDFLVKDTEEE

T4: CT-H-NS (UniProt P0ACF8 95-137)
T4 chain: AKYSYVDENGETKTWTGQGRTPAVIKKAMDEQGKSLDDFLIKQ

B1: LeeH (WT) (dsDNA)
DNA 1: GCGATAATTGATACC
DNA 2: GGTATCAATTATCGC
B2: LeeH A13G (dsDNA)
DNA 1: GCGATAATTGATGCC
DNA 2: GGCATCAATTATCGC
B3: AAAT 10-mer (dsDNA)
DNA 1: CGCAAATGCG
DNA 2: CGCATTTGCG
B4: LeeH T5C (dsDNA)
DNA 1: GCGACAATTGATACC
DNA 2: GGTATCAATTGTCGC
B5: LeeH A11G (dsDNA)
DNA 1: GCGATAATTGGTACC
DNA 2: GGTACCAATTATCGC
B6: LeeH T8C (dsDNA)
DNA 1: GCGATAACTGATACC
DNA 2: GGTATCAGTTATCGC
B7: LeeH A7G (dsDNA)
DNA 1: GCGATAGTTGATACC
DNA 2: GGTATCAACTATCGC
B8: AAAA 10-mer (dsDNA)
DNA 1: CGCAAAAGCG
DNA 2: CGCTTTTGCG
B9: LeeH G10A (dsDNA)
DNA 1: GCGATAATTAATACC
DNA 2: GGTATTAATTATCGC
B10: LeeH T9C (dsDNA)
DNA 1: GCGATAATCGATACC
DNA 2: GGTATCGATTATCGC
B11: LeeH A6G (dsDNA)
DNA 1: GCGATGATTGATACC
DNA 2: GGTATCAATCATCGC
B12: AATA 10-mer (dsDNA)
DNA 1: CGCAATAGCG
DNA 2: CGCTATTGCG
B13: LeeH T12C (dsDNA)
DNA 1: GCGATAATTGACACC
DNA 2: GGTGTCAATTATCGC
B14: LeeH A4G (dsDNA)
DNA 1: GCGGTAATTGATACC
DNA 2: GGTATCAATTACCGC
B15: TTAA 10-mer (dsDNA)
DNA 1: CGCTTAAGCG
DNA 2: CGCTTAAGCG
B16: AATT 10-mer (dsDNA)
DNA 1: CGCAATTGCG
DNA 2: CGCAATTGCG
B17: TATA 10-mer (dsDNA)
DNA 1: CGCTATAGCG
DNA 2: CGCTATAGCG
B18: AATTC 10-mer (dsDNA)
DNA 1: CGGAATTCCG
DNA 2: CGGAATTCCG
B19: LeeFG (dsDNA)
DNA 1: AAATAATTGATAATA
DNA 2: TATTATCAATTATTT
B20: LeeG (dsDNA)
DNA 1: AAATAATTGATAATAATGTTTTTGTTACGT
DNA 2: ACGTAACAAAAACATTATTATCAATTATTT
B21: LeeF (dsDNA)
DNA 1: TTTCTTTTTTTATTGAAATAATTGATAATA
DNA 2: TATTATCAATTATTTCAATAAAAAAAGAAA

The target of the first series is T1, CT-Ler R90Q. As to the kind of experiment: fluorescence anisotropy; Anisotropy: 40 mM HEPES pH 7.5, 60 mM K-glutamate, 0.01% NaN3, 20 C; EMSA: 15 mM Na-phosphate pH 7.5, 100 mM NaCl, 0.01% NaN3, room temperature; NMR structure:
Particulars: protein: recombinant; tags: N-terminal His6 (pHAT2); blunt. In general terms: Polarisation of emitted light reports the rotation of a fluorescent probe.
Turning to B1, the binding result is “no binding”.

A further series has as its target T2, CT-Ler R90G. Described as above. Particulars: protein: recombinant; tags: N-terminal His6 (pHAT2); blunt.
For B1, the binding result is “no binding”.

In the next series the target is T3, CT-Ler. The description is as above. The settings on record: protein: recombinant; tags: N-terminal His6 (pHAT2); blunt.
B2: the Kd stood at 1480 ± 90 nM.
Take B3: the Kd stood at 6170 ± 360 nM.
Still for that read-out and setting: with B4 the figure was 1380 ± 110 nM; with B5, 1430 ± 40 nM.
The same measure, in the same setting: with B6 the figure was 1700 ± 130 nM; with B7, 2710 ± 320 nM; with B8, 8070 ± 220 nM.
As to B9, the Kd turned out to be 2310 ± 70 nM.
In the case of B10, the Kd was determined as 1360 ± 80 nM.
Same read-out and setting: under B11 stands 2480 ± 200 nM; under B12, 11500 ± 960 nM; under B1, 1100 ± 50 nM.
B13: the Kd came to 1450 ± 100 nM.
On the same count and under the same terms, under B14 stands 1060 ± 80 nM.

The series is the same for the next values; noted with them: protein: recombinant; tags: N-terminal His6 (pHAT2); blunt, self-complementary.
Consider B15, for which the dissociation constant (Kd) amounted to 22800 ± 2990 nM.
On the same count and under the same terms, with B16 the figure was 3450 ± 560 nM.
Still for that read-out and setting: with B17 the figure was 16600 ± 2200 nM.
Same read-out and setting: under B18 stands 4140 ± 310 nM.

The next series addresses T3, CT-Ler. As to the kind of experiment: fluorescence anisotropy; deviates from 1:1 model, multiple binding suggested; Anisotropy: 40 mM HEPES pH 7.5, 60 mM K-glutamate, 0.01% NaN3, 20 C; EMSA: 15 mM Na-phosphate pH 7.5, 100 mM NaCl, 0.01% NaN3, room temperature; NMR structure:
Particulars: protein: recombinant; tags: N-terminal His6 (pHAT2); blunt.
For B19, the binding result is listed as “binds”.

The next series deals with T4, CT-H-NS. As to the kind of experiment: NMR titration (1H-15N HSQC); Anisotropy: 40 mM HEPES pH 7.5, 60 mM K-glutamate, 0.01% NaN3, 20 C; EMSA: 15 mM Na-phosphate pH 7.5, 100 mM NaCl, 0.01% NaN3, room temperature; NMR structure:
The settings on record: protein: recombinant; tags: N-terminal His6 (pHAT2); blunt, self-complementary. (In EMSA bound probe runs differently from free probe, usually more slowly.)
As for B16, the Kd was about 41000 nM.
The same measure, in the same setting: under B17 stands about 102000 nM.

A further series concerns the target T3, CT-Ler. As to the kind of experiment: fluorescence anisotropy; among highest affinities; Anisotropy: 40 mM HEPES pH 7.5, 60 mM K-glutamate, 0.01% NaN3, 20 C; EMSA: 15 mM Na-phosphate pH 7.5, 100 mM NaCl, 0.01% NaN3, room temperature; NMR structure:
Particulars: protein: recombinant; tags: N-terminal His6 (pHAT2); blunt.
Take B20: the binding result is “binds”.
Still for that read-out and setting: with B21 the entry was “binds”.

The Kd is the constant that tells how readily two partners part at equilibrium.

These data come from PMC3219716, “Indirect DNA Readout by an H-NS Related Protein: Structure of the DNA Complex of the C-Terminal Domain of Ler”.
